Results from patent US20200407424A1 (FRAUNHOFER GESELLSCHAFT ZUR F RDERUNG DER ANGEWANDTEN …, published 2020).
Read-outs that look alike come from different tables or passages of the source. One block for each binder: values may come before it. Square brackets hold non-standard residues; d marks the D form. Ends that are not written are not given here. Cit = NC(=O)NCCC[C@H](N)C(=O)O

Assays:
[1] = target: T1, recombinant MHC class II protein of the HLA DRB1 0101 genotype (human); test: in vitro binding assay
T1 construct: construct not described

[2] = target: T2, recombinant MHC class II protein of the HLA DRB1 0401 genotype (human); test: in vitro binding assay
T2 construct: construct not described; also called HLA-DR0401

[3] = target: T1, recombinant MHC class II protein of the …; test: in vitro binding assay; remark: listed apart in the source
[4] = target: T3, recombinant MHC class II protein of the HLA DRB1 0405 genotype (human); test: in vitro binding assay
T3 construct: construct not described

[5] = target: T4, recombinant MHC class II protein of the HLA DRB1 0404 genotype (human); test: in vitro binding assay
T4 construct: construct not described

[6] = target: T5, recombinant MHC class II protein of the HLA DRB1 1001 genotype (human); test: in vitro binding assay
T5 construct: construct not described

[7] = target: T6, recombinant MHC class II protein of the HLA DRB1 0408 genotype (human); test: in vitro binding assay
T6 construct: construct not described

[8] = target: T2, recombinant MHC class II protein of the …; test: binds MHC in vitro
[9] = target: T5, recombinant MHC class II protein of the …; test: in vitro binding assay; remark: listed apart in the source
[10] = target: T6, recombinant MHC class II protein of the …; test: in vitro binding assay; remark: listed apart in the source
[11] = target: T4, recombinant MHC class II protein of the …; test: in vitro binding assay; remark: listed apart in the source
[12] = target: T1, recombinant MHC class II protein of the …; test: in vitro binding assay; remark: listed apart in the source
[13] = target: T2, recombinant MHC class II protein of the …; test: in vitro binding assay; remark: listed apart in the source
[14] = target: T3, recombinant MHC class II protein of the …; test: in vitro binding assay; remark: listed apart in the source
[15] = target: T4, recombinant MHC class II protein of the …; test: in vitro binding assay; remark: listed apart in the source
[16] = target: T2, recombinant MHC class II protein of the …; test: in vitro binding assay; remark: listed apart in the source

Binder: KRIAKAVNEKSCNCL [a-enolase peptide ref no 66]
binding result [3]: binds
binding result [4]: binds
binding result [5]: binds
binding result [6]: no binding
binding result [7]: binds
binding result [8]: binds

Binder: QGP[Cit]GLPGTPGTDGP [citrullinated type II collagen peptide ref no 384]
binding result [9]: binds
binding result [10]: binds

Binder: RYMGKGVSKAVEHIN [corresponding non-citrullinated peptide of a-enolase peptide 297]
binding result [1]: binds
binding result [2]: no binding

Binder: PQGPRGDKGEAGEPG [type II collagen peptide ref no 268]
binding result [9]: binds

Binder: AGFKGEQGPKGEPGP [type II collagen peptide ref no 138]
binding result [12]: binds
binding result [13]: binds

Binder: GIVGLPGQRGERGFP [type II collagen peptide ref no 242]
binding result [12]: binds
binding result [13]: binds
binding result [14]: binds
binding result [15]: binds

B1: a-enolase peptide ref no 6 (peptide)
peptide: TSKGLFRAAVPSGAS
notes: also called corresponding non-citrinullated peptide of 291
binding result [3]: binds
binding result [16]: no binding
binding result [4]: binds
binding result [6]: no binding
binding result [7]: no binding
binding result [11]: binds

Binder: [Cit]GPPGPQGA[Cit]GFPGT [citrullinated type II collagen peptide ref no 332]
binding result [13]: binds
binding result [14]: binds
binding result [15]: binds

Binder: GEPGIAGFKGEQGPK [type II collagen peptide ref no 137]
binding result [12]: binds
binding result [13]: binds
binding result [15]: binds

Binder: GIVGLPGQRGERGFP [corresponding non-citrullinated peptide of type II collagen peptide 411]
binding result [2]: binds
binding result [11]: binds

Binder: PKGANGDPG[Cit]PGEPG [citrullinated type II collagen peptide ref no 362]
binding result [9]: binds

The next lines start with the values.

binding result [1]: binds
binding result [2]: binds
Binder: KRIAKAVNEKSCNCL [corresponding non-citrullinated peptide of a-enolase peptide 313]

binding result [11]: binds
Binder: PGLQGMPGERGAAGI [corresponding non-citrullinated peptide of type II collagen peptide 386]

binding result [9]: binds
Binder: APGN[Cit]GFPGQDGLAG [citrullinated type II collagen peptide ref no 357]

binding result [1]: binds
binding result [2]: no binding
binding result [11]: binds
Binder: MSILKIHAREIFDSR [corresponding non-citrullinated peptide of a-enolase peptide 287]

binding result [9]: binds
Binder: GDRGEAGAQGPMGPS [type II collagen peptide ref no 263]

binding result [3]: binds
binding result [4]: binds
binding result [6]: binds
binding result [7]: no binding
binding result [2]: binds
binding result [11]: binds
Binder: TSKGLF[Cit]AAVPSGAS [citrullinated a-enolase peptide ref no 291]
